Our source for the IC50 values is patent US20160272683A1 (Novo Nordisk, published 2016).

The labels stand for the following.
T1: human amylin receptor (human calcitonin receptor + human RAMP3) (human) (UniProt P30988)
T1 sequence (looked up) 1: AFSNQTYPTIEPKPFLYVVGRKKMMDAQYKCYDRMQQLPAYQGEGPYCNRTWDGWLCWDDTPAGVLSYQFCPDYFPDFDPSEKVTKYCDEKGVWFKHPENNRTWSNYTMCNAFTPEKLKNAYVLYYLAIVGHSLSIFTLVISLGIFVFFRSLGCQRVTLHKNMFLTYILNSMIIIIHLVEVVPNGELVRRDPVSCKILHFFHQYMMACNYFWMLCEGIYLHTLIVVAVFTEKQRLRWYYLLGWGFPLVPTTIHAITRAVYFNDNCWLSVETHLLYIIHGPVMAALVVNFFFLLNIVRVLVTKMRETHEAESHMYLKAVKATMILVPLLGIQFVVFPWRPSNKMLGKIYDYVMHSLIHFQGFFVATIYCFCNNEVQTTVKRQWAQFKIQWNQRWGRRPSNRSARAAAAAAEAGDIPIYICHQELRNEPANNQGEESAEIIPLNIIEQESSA
T1 sequence (looked up) 2: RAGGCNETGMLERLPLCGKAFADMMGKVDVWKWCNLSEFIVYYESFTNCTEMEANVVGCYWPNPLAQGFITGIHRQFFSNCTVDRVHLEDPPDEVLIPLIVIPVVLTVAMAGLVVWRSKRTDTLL

B1: [N-terminal(C18 diacid-gGlu), des1, 30S, 31G, 32P]mimylin (peptide)
peptide: {C18 diacid-γGlu}-ASELSTAALGRLSAELHELATLPRTETGSGPP-NH2
SMILES: CC(C)C[C@H](NC(=O)[C@H](C)NC(=O)[C@H](C)NC(=O)[C@@H](NC(=O)[C@H](CO)NC(=O)[C@H](CC(C)C)NC(=O)[C@H](CCC(=O)O)NC(=O)[C@H](CO)NC(=O)[C@H](C)NC(=O)CC[C@H](NC(=O)CCCCCCCCCCCCCCCCC(=O)O)C(=O)O)[C@@H](C)O)C(=O)NCC(=O)N[C@@H](CCCNC(=N)N)C(=O)N[C@@H](CC(C)C)C(=O)N[C@@H](CO)C(=O)N[C@@H](C)C(=O)N[C@@H](CCC(=O)O)C(=O)N[C@@H](CC(C)C)C(=O)N[C@@H](Cc1c[nH]cn1)C(=O)N[C@@H](CCC(=O)O)C(=O)N[C@@H](CC(C)C)C(=O)N[C@@H](C)C(=O)N[C@H](C(=O)N[C@@H](CC(C)C)C(=O)N1CCC[C@H]1C(=O)N[C@@H](CCCNC(=N)N)C(=O)N[C@H](C(=O)N[C@@H](CCC(=O)O)C(=O)N[C@H](C(=O)NCC(=O)N[C@@H](CO)C(=O)NCC(=O)N1CCC[C@H]1C(=O)N1CCC[C@H]1C(N)=O)[C@@H](C)O)[C@@H](C)O)[C@@H](C)O
B2: [N-terminal(C20 diacid-gGlu), des1, 25H, 30S, 31G]mimylin (peptide)
peptide: {C20 diacid-γGlu}-ASELSTAALGRLSAELHELATLPHTETGSGSP-NH2
SMILES: CC(C)C[C@H](NC(=O)[C@H](C)NC(=O)[C@H](C)NC(=O)[C@@H](NC(=O)[C@H](CO)NC(=O)[C@H](CC(C)C)NC(=O)[C@H](CCC(=O)O)NC(=O)[C@H](CO)NC(=O)[C@H](C)NC(=O)CC[C@H](NC(=O)CCCCCCCCCCCCCCCCCCC(=O)O)C(=O)O)[C@@H](C)O)C(=O)NCC(=O)N[C@@H](CCCNC(=N)N)C(=O)N[C@@H](CC(C)C)C(=O)N[C@@H](CO)C(=O)N[C@@H](C)C(=O)N[C@@H](CCC(=O)O)C(=O)N[C@@H](CC(C)C)C(=O)N[C@@H](Cc1c[nH]cn1)C(=O)N[C@@H](CCC(=O)O)C(=O)N[C@@H](CC(C)C)C(=O)N[C@@H](C)C(=O)N[C@H](C(=O)N[C@@H](CC(C)C)C(=O)N1CCC[C@H]1C(=O)N[C@@H](Cc1c[nH]cn1)C(=O)N[C@H](C(=O)N[C@@H](CCC(=O)O)C(=O)N[C@H](C(=O)NCC(=O)N[C@@H](CO)C(=O)NCC(=O)N[C@@H](CO)C(=O)N1CCC[C@H]1C(N)=O)[C@@H](C)O)[C@@H](C)O)[C@@H](C)O
B3: [N-terminal(C18 diacid-gGlu), des1, 9V, 30S, 31G]mimylin (peptide)
peptide: {C18 diacid-γGlu}-ASELSTAVLGRLSAELHELATLPRTETGSGSP-NH2
SMILES: CC(C)C[C@H](NC(=O)[C@H](CCC(=O)O)NC(=O)[C@H](Cc1c[nH]cn1)NC(=O)[C@H](CC(C)C)NC(=O)[C@H](CCC(=O)O)NC(=O)[C@H](C)NC(=O)[C@H](CO)NC(=O)[C@H](CC(C)C)NC(=O)[C@H](CCCNC(=N)N)NC(=O)CNC(=O)[C@H](CC(C)C)NC(=O)[C@@H](NC(=O)[C@H](C)NC(=O)[C@@H](NC(=O)[C@H](CO)NC(=O)[C@H](CC(C)C)NC(=O)[C@H](CCC(=O)O)NC(=O)[C@H](CO)NC(=O)[C@H](C)NC(=O)CC[C@H](NC(=O)CCCCCCCCCCCCCCCCC(=O)O)C(=O)O)[C@@H](C)O)C(C)C)C(=O)N[C@@H](C)C(=O)N[C@H](C(=O)N[C@@H](CC(C)C)C(=O)N1CCC[C@H]1C(=O)N[C@@H](CCCNC(=N)N)C(=O)N[C@H](C(=O)N[C@@H](CCC(=O)O)C(=O)N[C@H](C(=O)NCC(=O)N[C@@H](CO)C(=O)NCC(=O)N[C@@H](CO)C(=O)N1CCC[C@H]1C(N)=O)[C@@H](C)O)[C@@H](C)O)[C@@H](C)O
B4: [N-terminal(C20 diacid-gGlu), des1, 30T, 31G, 32T]mimylin (peptide)
peptide: {C20 diacid-γGlu}-ASELSTAALGRLSAELHELATLPRTETGTGTP-NH2
SMILES: CC(C)C[C@H](NC(=O)[C@H](C)NC(=O)[C@H](C)NC(=O)[C@@H](NC(=O)[C@H](CO)NC(=O)[C@H](CC(C)C)NC(=O)[C@H](CCC(=O)O)NC(=O)[C@H](CO)NC(=O)[C@H](C)NC(=O)CC[C@H](NC(=O)CCCCCCCCCCCCCCCCCCC(=O)O)C(=O)O)[C@@H](C)O)C(=O)NCC(=O)N[C@@H](CCCNC(=N)N)C(=O)N[C@@H](CC(C)C)C(=O)N[C@@H](CO)C(=O)N[C@@H](C)C(=O)N[C@@H](CCC(=O)O)C(=O)N[C@@H](CC(C)C)C(=O)N[C@@H](Cc1c[nH]cn1)C(=O)N[C@@H](CCC(=O)O)C(=O)N[C@@H](CC(C)C)C(=O)N[C@@H](C)C(=O)N[C@H](C(=O)N[C@@H](CC(C)C)C(=O)N1CCC[C@H]1C(=O)N[C@@H](CCCNC(=N)N)C(=O)N[C@H](C(=O)N[C@@H](CCC(=O)O)C(=O)N[C@H](C(=O)NCC(=O)N[C@H](C(=O)NCC(=O)N[C@H](C(=O)N1CCC[C@H]1C(N)=O)[C@@H](C)O)[C@@H](C)O)[C@@H](C)O)[C@@H](C)O)[C@@H](C)O
B5: [N-terminal(C18 diacid), 5I, 9I, 10I, 20I]mimylin (peptide)
peptide: {C18 diacid}-EASEISTAIIGRLSAELHEIATLPRTETGPESP-NH2
SMILES: CC[C@H](C)[C@H](NC(=O)[C@H](C)NC(=O)[C@@H](NC(=O)[C@H](CO)NC(=O)[C@@H](NC(=O)[C@H](CCC(=O)O)NC(=O)[C@H](CO)NC(=O)[C@H](C)NC(=O)[C@H](CCC(=O)O)NC(=O)CCCCCCCCCCCCCCCCC(=O)O)[C@@H](C)CC)[C@@H](C)O)C(=O)N[C@H](C(=O)NCC(=O)N[C@@H](CCCNC(=N)N)C(=O)N[C@@H](CC(C)C)C(=O)N[C@@H](CO)C(=O)N[C@@H](C)C(=O)N[C@@H](CCC(=O)O)C(=O)N[C@@H](CC(C)C)C(=O)N[C@@H](Cc1c[nH]cn1)C(=O)N[C@@H](CCC(=O)O)C(=O)N[C@H](C(=O)N[C@@H](C)C(=O)N[C@H](C(=O)N[C@@H](CC(C)C)C(=O)N1CCC[C@H]1C(=O)N[C@@H](CCCNC(=N)N)C(=O)N[C@H](C(=O)N[C@@H](CCC(=O)O)C(=O)N[C@H](C(=O)NCC(=O)N1CCC[C@H]1C(=O)N[C@@H](CCC(=O)O)C(=O)N[C@@H](CO)C(=O)N1CCC[C@H]1C(N)=O)[C@@H](C)O)[C@@H](C)O)[C@@H](C)O)[C@@H](C)CC)[C@@H](C)CC
B6: [N-terminal(C20 diacid-gGlu), des1, 30S, 31G, 33G]mimylin (peptide)
peptide: {C20 diacid-γGlu}-ASELSTAALGRLSAELHELATLPRTETGSGSG-NH2
SMILES: CC(C)C[C@H](NC(=O)[C@H](C)NC(=O)[C@H](C)NC(=O)[C@@H](NC(=O)[C@H](CO)NC(=O)[C@H](CC(C)C)NC(=O)[C@H](CCC(=O)O)NC(=O)[C@H](CO)NC(=O)[C@H](C)NC(=O)CC[C@H](NC(=O)CCCCCCCCCCCCCCCCCCC(=O)O)C(=O)O)[C@@H](C)O)C(=O)NCC(=O)N[C@@H](CCCNC(=N)N)C(=O)N[C@@H](CC(C)C)C(=O)N[C@@H](CO)C(=O)N[C@@H](C)C(=O)N[C@@H](CCC(=O)O)C(=O)N[C@@H](CC(C)C)C(=O)N[C@@H](Cc1c[nH]cn1)C(=O)N[C@@H](CCC(=O)O)C(=O)N[C@@H](CC(C)C)C(=O)N[C@@H](C)C(=O)N[C@H](C(=O)N[C@@H](CC(C)C)C(=O)N1CCC[C@H]1C(=O)N[C@@H](CCCNC(=N)N)C(=O)N[C@H](C(=O)N[C@@H](CCC(=O)O)C(=O)N[C@H](C(=O)NCC(=O)N[C@@H](CO)C(=O)NCC(=O)N[C@@H](CO)C(=O)NCC(N)=O)[C@@H](C)O)[C@@H](C)O)[C@@H](C)O
B7: [N-terminal(C20 diacid-gGlu), des1, 30S, 31G, 33A]mimylin (peptide)
peptide: {C20 diacid-γGlu}-ASELSTAALGRLSAELHELATLPRTETGSGSA-NH2
SMILES: CC(C)C[C@H](NC(=O)[C@H](C)NC(=O)[C@H](C)NC(=O)[C@@H](NC(=O)[C@H](CO)NC(=O)[C@H](CC(C)C)NC(=O)[C@H](CCC(=O)O)NC(=O)[C@H](CO)NC(=O)[C@H](C)NC(=O)CC[C@H](NC(=O)CCCCCCCCCCCCCCCCCCC(=O)O)C(=O)O)[C@@H](C)O)C(=O)NCC(=O)N[C@@H](CCCNC(=N)N)C(=O)N[C@@H](CC(C)C)C(=O)N[C@@H](CO)C(=O)N[C@@H](C)C(=O)N[C@@H](CCC(=O)O)C(=O)N[C@@H](CC(C)C)C(=O)N[C@@H](Cc1c[nH]cn1)C(=O)N[C@@H](CCC(=O)O)C(=O)N[C@@H](CC(C)C)C(=O)N[C@@H](C)C(=O)N[C@H](C(=O)N[C@@H](CC(C)C)C(=O)N1CCC[C@H]1C(=O)N[C@@H](CCCNC(=N)N)C(=O)N[C@H](C(=O)N[C@@H](CCC(=O)O)C(=O)N[C@H](C(=O)NCC(=O)N[C@@H](CO)C(=O)NCC(=O)N[C@@H](CO)C(=O)N[C@@H](C)C(N)=O)[C@@H](C)O)[C@@H](C)O)[C@@H](C)O
B8: [N-terminal(C20 diacid-gGlu), des1, 30S, 31G, 33S]mimylin (peptide)
peptide: {C20 diacid-γGlu}-ASELSTAALGRLSAELHELATLPRTETGSGSS-NH2
SMILES: CC(C)C[C@H](NC(=O)[C@H](C)NC(=O)[C@H](C)NC(=O)[C@@H](NC(=O)[C@H](CO)NC(=O)[C@H](CC(C)C)NC(=O)[C@H](CCC(=O)O)NC(=O)[C@H](CO)NC(=O)[C@H](C)NC(=O)CC[C@H](NC(=O)CCCCCCCCCCCCCCCCCCC(=O)O)C(=O)O)[C@@H](C)O)C(=O)NCC(=O)N[C@@H](CCCNC(=N)N)C(=O)N[C@@H](CC(C)C)C(=O)N[C@@H](CO)C(=O)N[C@@H](C)C(=O)N[C@@H](CCC(=O)O)C(=O)N[C@@H](CC(C)C)C(=O)N[C@@H](Cc1c[nH]cn1)C(=O)N[C@@H](CCC(=O)O)C(=O)N[C@@H](CC(C)C)C(=O)N[C@@H](C)C(=O)N[C@H](C(=O)N[C@@H](CC(C)C)C(=O)N1CCC[C@H]1C(=O)N[C@@H](CCCNC(=N)N)C(=O)N[C@H](C(=O)N[C@@H](CCC(=O)O)C(=O)N[C@H](C(=O)NCC(=O)N[C@@H](CO)C(=O)NCC(=O)N[C@@H](CO)C(=O)N[C@@H](CO)C(N)=O)[C@@H](C)O)[C@@H](C)O)[C@@H](C)O

Numbered stars: 1 amine (or outer) side, 2 acyl side, 3 side chain; on linkers, the order of the positions; unused ones are H or OH. * marks the point of attachment. C20 diacid = O=C(O)CCCCCCCCCCCCCCCCCCC(=O)*; C18 diacid = O=C(O)CCCCCCCCCCCCCCCCC(=O)*; γGlu = O=C(O)[C@H](CCC(=O)[*:2])N[*:1]

In the experiment the target is T1, human amylin receptor (human calcitonin receptor + human RAMP3) (human). As to the kind of experiment: whole-cell competition vs 125I-rat amylin (Assay Va).
For B1, the concentration for half-maximal inhibition (IC50) (commonly the concentration at which inhibition is half-maximal) is 22 nM. For B2, the IC50 was 0.608 nM. For B3, the IC50 turned out to be 0.764 nM.

As to B4, the IC50 was found to be 0.606 nM. B5: the IC50 amounted to 0.998 nM.

For B6, the IC50 is 4.36 nM. Take B7: the concentration for half-maximal inhibition (IC50) is 1.89 nM. As for B8, the IC50 came to 4.07 nM.
